Source: patent US7432244 (dated 2008)
Bridge positions count the residues as written; N and C are the ends. Ends that are not written are not given here.

Molecular target: T1, IGF-1 (human, UniProt P05019)
Experiment: competition phage ELISA

T1 sequence (P05019 49-118): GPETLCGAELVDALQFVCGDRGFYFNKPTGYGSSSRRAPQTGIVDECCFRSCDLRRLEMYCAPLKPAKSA

Binder	IC50
WRCAQDAGGWTYCWA [F2-M]	1.04 µM
VTCAADALGFLYCWE [F2-I]	1.03 µM
ARCARDAGGFYYCWA [F2-L]	4.36 µM
YRCATDLAGFSYCWA [F2-K]	1.45 µM
FRCAWELGWLYVLGL [F2-F]	209 µM
VRCAWDLGGRAYCWA [F2-D]	249 µM
HDCFASVEALRRCMY [F1-D]	0.468 µM
LGCASDLAGFWYCWA [F2-E]	0.554 µM
FGCYESVAALRTCMY [F1-B]	0.301 µM
VRCVADAGGFLYCWA [F2-N]	1.18 µM
MDCLASVEALKWCMY [F1-H]	0.147 µM
WRCVDDLGGFQYCWA [F2-H]	0.319 µM
GGCASDLAGFRYCWE [F2-A]	1.33 µM
RNCFESVAALRRCMY [F1-C]	0.108 µM
LRCAEDLGGYFYCWA [F2-J]	2.12 µM
VKCARDLSGFVYCWA [F2-C]	10000 µM
HPCLESVGALKACMY [F1-A]	0.401 µM
ASCVADAGGGGYCWD [F2-G]	0.986 µM
VRCAYDAGGSRYCWE [F2-B]	24.6 µM
SDCFESVEALRACMY [F1-G]	0.968 µM
SDCFGSVEALKMCMY [F1-E]	0.711 µM
FECLTSVEALRGCMY [F1-F]	0.286 µM

Molecular target: T1, IGF-1
Experiment: competition, IGF-1 phage vs IGFBP-1

Binder	IC50
RNCFESVAALRRCMYG (disulfide 3-13 (inferred)) [F1-1]	1.4 µM
MDCLASVEALKWCMYG (disulfide 3-13 (inferred)) [F1-2]	15.5 µM
FECLTSVEALRGCMYG (disulfide 3-13 (inferred)) [F1-3]	11.7 µM

Molecular target: T1, IGF-1
Experiment: competition, 125I-IGF-1 binding to MCF-7 cells, 37C

Binder	IC50
RNCFESVAALRRCMYG (disulfide 3-13 (inferred)) [F1-1]	5.12 µM
MDCLASVEALKWCMYG (disulfide 3-13 (inferred)) [F1-2]	15.3 µM
FECLTSVEALRGCMYG (disulfide 3-13 (inferred)) [F1-3]	45.7 µM

Molecular target: T1, IGF-1
Experiment: competition, IGF-1 phage vs IGFBP-3

Binder	IC50
RNCFESVAALRRCMYG (disulfide 3-13 (inferred)) [F1-1]	2.93 µM
MDCLASVEALKWCMYG (disulfide 3-13 (inferred)) [F1-2]	9.2 µM
FECLTSVEALRGCMYG (disulfide 3-13 (inferred)) [F1-3]	12.8 µM
